According to paper PMC4385108, “Characterization of the Kluyveromyces marxianus strain DMB1 YGL157w gene product as a broad specificity NADPH-dependent aldehyde reductase” (AMB Express, 2015):

Tests used:
purified protein [1] = substrate: CC(=O)C=O; assay: purified protein; format: biochemical, Kluyveromyces marxianus; details: 100 mM acetate pH 5.5, 25°C, 0.2 mM NADPH
purified protein [2] = substrate: NC(=O)C1=CN([C@@H]2O[C@H](COP(=O)(O)OP(=O)(O)OC[C@H]3O[C@@H](n4cnc5c(N)ncnc54)[C@H](OP(=O)(O)O)[C@@H]3O)[C@@H](O)[C@H]2O)C=CC1; assay: purified protein; format: biochemical, Kluyveromyces marxianus; details: 100 mM acetate pH 5.5, 25°C, co-substrate methylglyoxal (5 mM in the standard assay), kcat unit as printed, presumably min^−1, varied: cofactor

B1: KmGRE2 (YGL157w gene product) (Kluyveromyces marxianus) (protein)
chain: MTYVVVTGASGYLAQHVIKQLLERNYKVIGTVRNQQKAKDIAKLFQNDNLTLELVPDLLQADVFDDLFLKYTGQIKHVIHTASPCRFDTTEYENEMLLPAINGTKRVLESIKKYASETVETVVYTSSVSALANPAGILDSNLTLTEESWNPDSFEDGKKDVFSAYYVSKTFAERTAWDFWKENKDQVKFQLTTICPSYIFGPQAFEENAKGTLNFSTEIVNKILHSKPGDELDKNFAGAFVDVRDVARAHVLALEKPELKSKRLVLLNDVYALQDVADYINKHFPELRGKIATGVPGEGKEIVKYIAHYDNSKTKKLLGFEFISFGQAITDTVAQILKANN
notes: monomer, about 36 kDa by gel filtration, 40 kDa by SDS-PAGE
- Km (purified protein [1]): 300 ± 18 µM
- kcat (purified protein [1]): 1.3 × 10^3 ± 15 min^−1
- Km (purified protein [2]): 28 ± 1.2 µM
